Laboratory results reported in US20250353921A1 (ASTRIA THERAPEUTICS, published 2025).
“And” between values parts separate entries of the source, which are not always exact repeats. Identical values can stand only once. Each block holds one binder with its values, some of them ahead of it.

Key:
cynomolgus OX40-ECD-his [1] = target: T1, cynomolgus OX40-ECD-his (cynomolgus); assay: SPR Biacore T200, ratio of KD values
T1 construct: extracellular domain; also called Cyno OX40

human OX40-CRD-avi-his [2] = target: T2, human OX40-CRD-avi-his (human, UniProt P43489 29-170, limits assumed); assay: SPR Biacore T200, ratio of KD values
T2 construct: Only the CRD region of the ECD was used
T2 sequence: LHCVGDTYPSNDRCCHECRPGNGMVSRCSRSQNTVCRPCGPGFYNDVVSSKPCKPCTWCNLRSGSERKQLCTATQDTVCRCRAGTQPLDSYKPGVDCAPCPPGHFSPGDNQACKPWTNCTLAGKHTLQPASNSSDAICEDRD

[3] = target: T3, human OX40 (TNFRSF4, CD134) on cells (human, UniProt P43489 29-277); assay: flow cytometry on OX40-expressing HPB-ALL cells; cells pre-incubated with cold MAB1, washed, then stained with a single dose of the competitor GBR 830-AF647
T3 construct: also called OX40 on HPB-ALL cells; Jurkat-NFκB-OX40 cells
T3 sequence: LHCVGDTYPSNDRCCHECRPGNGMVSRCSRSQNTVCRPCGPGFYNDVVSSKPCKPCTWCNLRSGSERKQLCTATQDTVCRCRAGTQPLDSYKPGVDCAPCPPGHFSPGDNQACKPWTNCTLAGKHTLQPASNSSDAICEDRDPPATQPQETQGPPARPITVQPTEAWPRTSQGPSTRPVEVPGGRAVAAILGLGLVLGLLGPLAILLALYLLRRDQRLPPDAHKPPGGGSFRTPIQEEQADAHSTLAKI

cynomolgus OX40-ECD-his [4] = target: T1, cynomolgus OX40-ECD-his; assay: SPR, affinity for the extracellular domain (ECD) of cynomolgus monkey OX40
human OX40-CRD-avi-his [5] = target: T2, human OX40-CRD-avi-his; assay: SPR, affinity for the extracellular domain (ECD) of human OX40; lower end of the range
[6] = target: T3, human OX40 (TNFRSF4, CD134) on cells; assay: flow cytometry on OX40-expressing HPB-ALL cells; cells pre-incubated with cold GBR 830, washed, then stained with a single dose of the competitor MAB1-AF647
[7] = target: Human CD64 (FcγRI), Sino Biological 10256-H08H (human, UniProt P12314 16-288); assay: SPR Biacore 8K+, ratio of KD values
Sequence of Human CD64 (FcγRI), Sino Biological 10256-H08H (P12314 16-288 limits assumed): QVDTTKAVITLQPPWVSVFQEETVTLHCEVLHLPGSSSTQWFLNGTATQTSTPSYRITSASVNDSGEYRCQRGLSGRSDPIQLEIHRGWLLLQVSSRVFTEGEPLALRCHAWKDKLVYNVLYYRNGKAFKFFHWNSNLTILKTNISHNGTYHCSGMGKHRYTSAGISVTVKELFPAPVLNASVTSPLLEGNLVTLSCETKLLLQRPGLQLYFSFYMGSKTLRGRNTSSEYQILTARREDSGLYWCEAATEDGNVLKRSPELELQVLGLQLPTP

[8] = target: T4, Human CD16a (F176V), Sino Biological 10389-H08H1 (human, UniProt P08637 17-208); assay: SPR Biacore 8K+, ratio of KD values
T4 construct: also called FcγRIIIa176V
T4 sequence (P08637 17-208 F176V limits assumed): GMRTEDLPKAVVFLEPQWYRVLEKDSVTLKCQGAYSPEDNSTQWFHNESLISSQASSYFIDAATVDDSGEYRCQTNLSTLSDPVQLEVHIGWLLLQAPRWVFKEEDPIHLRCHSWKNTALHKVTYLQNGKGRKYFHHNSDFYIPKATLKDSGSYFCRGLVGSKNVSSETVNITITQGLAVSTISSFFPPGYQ

[9] = target: cynomolgus monkey (cy) OX40 protein (Example 5) (cynomolgus monkey); assay: ELISA on coated OX40, ratio of EC50 values
rabbit (rb) OX40 protein = target: T5, rabbit (rb) OX40 protein (rabbit); assay: ELISA on coated OX40, ratio of EC50 values
T5 construct: also called Rabbit OX40

[10] = target: T6, Human FcRn protein (Acro Biosystems, catalog NO: FCN-H52W7) (human, UniProt P55899 24-297; P61769 21-119); assay: SPR Biacore 8K+, antibody immobilised, FcRn analyte, pH 6.0; pH 6.0; ratio of the KD of MAB1 to that of MAB10
T6 construct: also called huFcRn

mouse (mo) OX40 protein = target: T7, mouse (mo) OX40 protein (mouse, UniProt P47741 20-211); assay: SPR single cycle kinetics, MAB10 captured
T7 construct: also called Mouse OX40
T7 sequence (looked up): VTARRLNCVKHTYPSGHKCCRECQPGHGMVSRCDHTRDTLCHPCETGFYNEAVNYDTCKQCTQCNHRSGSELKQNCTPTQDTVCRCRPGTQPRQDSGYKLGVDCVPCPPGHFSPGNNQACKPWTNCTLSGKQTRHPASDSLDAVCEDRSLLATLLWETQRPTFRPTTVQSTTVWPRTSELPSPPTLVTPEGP

rat (ra) OX40 protein = target: T8, rat (ra) OX40 protein (rat, UniProt P15725 20-210, limits assumed); assay: SPR single cycle kinetics, MAB10 captured
T8 construct: also called Rat OX40
T8 sequence (looked up): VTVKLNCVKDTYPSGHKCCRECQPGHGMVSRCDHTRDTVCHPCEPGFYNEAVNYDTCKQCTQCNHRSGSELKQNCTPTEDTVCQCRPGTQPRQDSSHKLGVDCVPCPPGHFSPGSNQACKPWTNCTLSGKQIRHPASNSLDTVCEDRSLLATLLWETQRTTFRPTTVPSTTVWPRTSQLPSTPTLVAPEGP

- fold increase in affinity (KD GBR 830 / KD MAB1) (cynomolgus OX40-ECD-his [1]): 5.5 fold
- fold increase in affinity (KD GBR 830 / KD MAB1) (human OX40-CRD-avi-his [2]): 13.4 fold
- IC50 (read off the curve) [3]: ~0.02 µg/mL
B1: MAB1 IgG1 (antibody)
heavy: not shown
light: EIVLTQSPATLSLSPGERATLSCRASSSVSYMHWYQQKPGQAPRPWIYATSNRATGIPARFSGSGSGTDYTLTISSLEPEDFAVYYCQQFGAWPWTFGQGTKVEIKRTVAAPSVFIFPPSDEQLKSGTASVVCLLNNFYPREAKVQWKVDNALQSGNSQESVTEQDSKDSTYSLSSTLTLSKADYEKHKVYACEVTHQGLSSPVTKSFNRGEC
notes: Human IgG1, kappa

- Kd (cynomolgus OX40-ECD-his [4]): 5 µM and 3 µM
- Kd (human OX40-CRD-avi-his [5]): 0.08 µM
- IC50 (read off the curve) [6]: ~0.2 µg/mL
B2: GBR 830 (telazorlimab) (antibody, human IgG1, kappa)
heavy: not shown
light: EIVLTQSPATLSLSPGERATLSCRASSSVSYMHWYQQKPGQAPRPWIYATSNRATGIPARFSGSGSGTDYTLTISSLEPEDFAVYYCQQWSSNPWTFGQGTKVEIKRTVAAPSVFIFPPSDEQLKSGTASVVCLLNNFYPREAKVQWKVDNALQSGNSQESVTEQDSKDSTYSLSSTLTLSKADYEKHKVYACEVTHQGLSSPVTKSFNRGEC
notes: IgG1; also called Antibody 830; ISB830

- fold-change of KD relative to MAB1 [7]: 1.6 fold
- fold-change of KD relative to MAB1 [8]: 2.7 fold
- fold EC50 against human OX40 [9]: 4 fold
- fold EC50 against human OX40 (rabbit (rb) OX40 protein): 8 fold
- fold increase of the binding constant against MAB1 [10]: 8.8 fold
- binding result (mouse (mo) OX40 protein): no binding
- binding result (rat (ra) OX40 protein): no binding
B3: MAB10 (antibody, human IgG1, kappa)
heavy: QVTLKESGPALVKPTQTLTLTCSFSGFSLSTSGMGVGWIRQPPGKALEWIAHIWWDDDKYYNTALKTRLTISKDTSKNQVVLTMTNMDPVDTATYYCARIDWDGFAYWGQGTLVTVSSASTKGPSVFPLAPSSKSTSGGTAALGCLVKDYFPEPVTVSWNSGALTSGVHTFPAVLQSSGLYSLSSVVTVPSSSLGTQTYICNVNHKPSNTKVDKKVEPKSCDKTHTCPPCPAPELLGGPSVFLFPPKPKDTLYITREPEVTCVVVDVSHEDPEVKFNWYVDGVEVHNAKTKPREEQYNSTYRVVSVLTVLHQDWLNGKEYKCKVSNKALPAPIEKTISKAKGQPREPQVYTLPPSRDELTKNQVSLTCLVKGFYPSDIAVEWESNGQPENNYKTTPPVLDSDGSFFLYSKLTVDKSRWQQGNVFSCSVMHEALHNHYTQKSLSLSPGK
light: EIVLTQSPATLSLSPGERATLSCRASSSVSYMHWYQQKPGQAPRPWIYATSNRATGIPARFSGSGSGTDYTLTISSLEPEDFAVYYCQQFGAWPWTFGQGTKVEIKRTVAAPSVFIFPPSDEQLKSGTASVVCLLNNFYPREAKVQWKVDNALQSGNSQESVTEQDSKDSTYSLSSTLTLSKADYEKHKVYACEVTHQGLSSPVTKSFNRGEC
notes: MAB1 with M252Y, S254T and T256E (EU numbering) in the IgG1 Fc; also called MAB1 Heavy Chain + YTE
